Here are results for 2 molecules from patent US20230250177A1 (INTERVET, published 2023).

Assay [1] addresses biotinylated canine IL-31 (canine). Kind of assay: ELISA: IL-31RA coated at 10 µg/mL, biotinylated IL-31 titrated 3-fold from 10 µg/mL, HRP-streptavidin.
Assay [2] has as its target T1, canine IL-22 with a C-terminal HIS tag (canine).
T1 construct: Recombinant, made in HEK-293 or CHO cells; coated on the ELISA plate; also called cIL-22-His; canine IL-22-HIS
T1 chain: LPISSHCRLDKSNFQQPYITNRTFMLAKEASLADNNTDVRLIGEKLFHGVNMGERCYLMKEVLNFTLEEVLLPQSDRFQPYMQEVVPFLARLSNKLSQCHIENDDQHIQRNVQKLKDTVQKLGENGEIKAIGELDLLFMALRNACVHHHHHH
Kind of assay: ELISA: cIL-22-His coated at 1 µg/mL, Fezakinumab titrated from 5 µg/mL, anti-human IgG Fc-HRP. The method, then: The binding of canine IL-22 HIS to the anti-IL-22 antibody Fezakinumab was determined by ELISA as follows: […]
For orientation: In an ELISA, binding on a coated surface is turned into a signal by an enzyme label.

For the molecule “Canine IL-31RA ECD-10His (extracellular domain of canine IL-31 receptor alpha fused to a HIS tag)”, the EC50 (in general, the concentration at which the effect is half-maximal) in assay [1] is 0.368 µg/mL.

B1: Fezakinumab (human monoclonal anti-IL-22 antibody) (antibody, human IgG1, lambda, V domains shown)
VH: QVQLVQSGAEVKKPGASVKVSCKASGYTFTNYYMHWVRQAPGQGLEWVGWINPYTGSAFYAQKFRGRVTMTRDTSISTAYMELSRLRSDDTAVYYCAREPEKFDSDDSDVWGRGTLVTVSS
VL: QAVLTQPPSVSGAPGQRVTISCTGSSSNIGAGYGVHWYQQLPGTAPKLLIYGDSNRPSGVPDRFSGSKSGTSASLAITGLQAEDEADYYCQSYDNSLSGYVFGGGTQLTVLG
notes: Full human heavy and light chains, marked PRIOR ART; made recombinantly in HEK-293 or CHO cells; also called Fezakinumab-mAb; Feza-mAb
Regarding B1, the binding result in assay [2] was “binds”.
